In paper PMC4075942 (Nature structural & molecular biology, 2014):
Substitutions are numbered along the chain they refer to. In names and notes the source's numbering stands. Several values for one entry are separate records, joined by “and”; a condition that tells them apart may be missing. Equal values may be shown once.

B1: Cas2 from Escherichia coli K12 (MG1655), untagged, purified (enzyme, E. coli K12 (MG1655))
chain: MSMLVVVTENVPPRLRGRLAIWLLEVRAGVYVGDVSAKIREMIWEQIAGLAEEGNVVMAWATNTETGFEFQTFGLNRRTPVDLDGLRLVSFLPV
B2: Cas1 from Escherichia coli K12 (MG1655), untagged, purified (enzyme, E. coli K12 (MG1655))
chain: MTWLPLNPIPLKDRVSMIFLQYGQIDVIDGAFVLIDKTGIRTHIPVGSVACIMLEPGTRVSHAAVRLAAQVGTLLVWVGEAGVRVYASGQPGGARSDKLLYQAKLALDEDLRLKVVRKMFELRFGEPAPARRSVEQLRGIEGSRVRATYALLAKQYGVTWNGRRYDPKDWEKGDTINQCISAATSCLYGVTEAAILAAGYAPAIGFVHTGKPLSFVYDIADIIKFDTVVPKAFEIARRNPGEPDREVRLACRDIFRSSKTLAKLIPLIEDVLAAGEIQPPAPPEDAQPVAIPLPVSLGDAGHRSS
B3: Cas1 R252E, purified (enzyme, E. coli K12 (MG1655))
chain: B2 chain with R252E

Experiments:
[1] = molecular target: B2; assay: ITC
[2] = molecular target: the molecule itself; assay: crystal structure
[3] = molecular target: B1; assay: ITC
[4] = molecular target: B1; assay: AUC
[5] = molecular target: the molecule itself; assay: SEC

Kd [1] [nM] | KD of a single run [3] | stoichiometry N [3] | stoichiometry N [4] [Cas1 dimer per Cas2 dimer] | Binder | stoichiometry N [2] | stoichiometry N [5]
~290 |  |  |  | B1 | 2 | 
 | 308 nM and 212 nM and 351 nM | ~1.5 Cas1 to Cas2 | 1 | B2 | 2 | 
 |  |  |  | B3 |  | 2
